From IntAct's records for PubMed 8599766

B1: Insulin receptor substrate 1 (Homo sapiens), P35568 (parent)
chain: MASPPESDGFSDVRKVGYLRKPKSMHKRFFVLRAASEAGGPARLEYYENEKKWRHKSSAPKRSIPLESCFNINKRADSKNKHLVALYTRDEHFAIAADSEAEQDSWYQALLQLHNRAKGHHDGAAALGAGGGGGSCSGSSGLGEAGEDLSYGDVPPGPAFKEVWQVILKPKGLGQTKNLIGIYRLCLTSKTISFVKLNSEAAAVVLQLMNIRRCGHSENFFFIEVGRSAVTGPGEFWMQVDDSVVAQNMHETILEAMRAMSDEFRPRSKSQSSSNCSNPISVPLRRHHLNNPPPSQVGLTRRSRTESITATSPASMVGGKPGSFRVRASSDGEGTMSRPASVDGSPVSPSTNRTHAHRHRGSARLHPPLNHSRSIPMPASRCSPSATSPVSLSSSSTSGHGSTSDCLFPRRSSASVSGSPSDGGFISSDEYGSSPCDFRSSFRSVTPDSLGHTPPARGEEELSNYICMGGKGPSTLTAPNGHYILSRGGNGHRCTPGTGLGTSPALAGDEAASAADLDNRFRKRTHSAGTSPTITHQKTPSQSSVASIEEYTEMMPAYPPGGGSGGRLPGHRHSAFVPTRSYPEEGLEMHPLERRGGHHRPDSSTLHTDDGYMPMSPGVAPVPSGRKGSGDYMPMSPKSVSAPQQIINPIRRHPQRVDPNGYMMMSPSGGCSPDIGGGPSSSSSSSNAVPSGTSYGKLWTNGVGGHHSHVLPHPKPPVESSGGKLLPCTGDYMNMSPVGDSNTSSPSDCYYGPEDPQHKPVLSYYSLPRSFKHTQRPGEPEEGARHQHLRLSTSSGRLLYAATADDSSSSTSSDSLGGGYCGARLEPSLPHPHHQVLQPHLPRKVDTAAQTNSRLARPTRLSLGDPKASTLPRAREQQQQQQPLLHPPEPKSPGEYVNIEFGSDQSGYLSGPVAFHSSPSVRCPSQLQPAPREEETGTEEYMKMDLGPGRRAAWQESTGVEMGRLGPAPPGAASICRPTRAVPSSRGDYMTMQMSCPRQSYVDTSPAAPVSYADMRTGIAAEEVSLPRATMAAASSSSAASASPTGPQGAAELAAHSSLLGGPQGPGGMSAFTRVNLSPNRNQSAKVIRADPQGCRRRHSSETFSSTPSATRVGNTVPFGAGAAVGGGGGSSSSSEDVKRHSSASFENVWLRPGELGGAPKEPAKLCGAAGGLENGLNYIDLDLVKDFKQCPQECTPEPQPPPPPPPHQPLGSGESSSTRRSSEDLSAYASISFQKQPEDRQ

Variants of: B1
Conditions: with il4ra_human IL4R
With M257A the “effect of a mutation on the interaction” value was “decreasing interaction”. For R227Q, the “effect of a mutation on the interaction” value was “decreasing interaction”. R212Q;R227Q was tested, and the “effect of a mutation on the interaction” value was “disrupting interaction”. For R212Q, the “effect of a mutation on the interaction” value was “decreasing interaction”.
